Measurements as given in US20240400663A1 (Regeneron, published 2024).

B1: H1H29146P2 (antibody, V domains shown)
VH: EVQLVESGGGLVQPGGSLQLSCAASGFAFSDSAIYWVRQASGKGLEWVGRIRNKANRFATAYGASVKGRFSIHRDDSKNTAYLQMNSLKTEDTAVYYCARHGHDTLTEGYGMDVWGQGTTVTVSS
VL: not shown
B2: H1H29192P2 (antibody, V domains shown)
VH: QVQLVQSGAEVKKPGASVRVSCMASGYTFTGYYMHWVRQAPGQGLEWMGWINPNSGGTKYAQKFQGRVTMTRDTSISTAYMELSRLRSDDTAVYYCAREEVDDFWSGYLDYWGQGTLVTVSS
VL: not shown
B3: H1H29179P2 (antibody, V domains shown)
VH: QVQLQESGPGLVKPSQTLSLTCTVSGGSISSSGYYWSWIRQHPGRGLEWIGYIYYSGSTYYNPSLKSRVTISVDTSKNQFSLKLNSVTAADTAVYYCARVDYGSGSSFDYWGQGTLVTVSS
VL: not shown
B4: H1H29125P (antibody, V domains shown)
VH: QVQLVESGGGVVQPGRSLRLSCAASGFTFSSYGMHWVRQAPGKGLEWMAVISYDGSNKYYADSVKGRFTISRDNSKNTLFLQMNSLRPEDTAVYYCAQDGSSAIYYFYGMDVWGQGTTVTVSS
VL: DIQMTQSPSSLSASIGDRVTITCRASQDINNYLAWFQQKPGKAPKSLIYAASSLQSGVPSKFSGSGSGTDFTLTISSLQPEDFATYYCLQYNSYHPTFGQGTKLEIKR
B5: H1H29171P2 (antibody, V domains shown)
VH: QVQLVESGGGVVQPGRSLRLSCAASGFTFSSYGMHWVRQAPGKGLEWVAVISYDGSNKYYADSVKGRFTISRDNSKNTLYLQMNSLRAEDTAVYYCAKDDWNYDAFDIWGQGTMVTVSS
VL: not shown
B6: H1H29094P (antibody, V domains shown)
VH: not shown
VL: DIQMTQSPSSLSASVGDRVTITCQASQDINRDLNWYQQKSGKGPKLLIYDASNLETGVPSRFSGNRFGTDFTFTISRLQPEDIATYFCQQYKNLPYTFGQGTKLEIKR
B7: H1H29151P2 (antibody, V domains shown)
VH: QVQLVESGGGLVKPGGSLRLSCAASGFTFSDYYMNWVRQAPGKGLEWVSYISNSGNTQYYADSVKGRFTISRDNAKNSLFLQMNSLRAEDTAVYYCTREGLEYSSSEPFDYWGQGTLVTVSS
VL: not shown
B8: H1H29183P2 (antibody, V domains shown)
VH: QVQLVQSGPEVKKPGASVKVSCKASGYTFTSYGISWVRQAPGQGLEWLGWISGFNGRTDYTEKLQDRITMTTDRSSSTAYMELRSLRYDDTAVYYCARDGLEKLGDYWGQGTLVTVSS
VL: not shown
B9: H1H29163P2 (antibody, V domains shown)
VH: QVQLVQSGAEVKKPGASVKVSCKTSGYTFTAYYIHWVRQAPGQGLEWMGWINPNNGDTNYALRFQGRVTMTRDMSINTAYMELRGLRSDDTAVYYCARDDLAAAGIGWFDSWGQGTLVTVSS
VL: not shown
B10: H1H29141P (antibody, V domains shown)
VH: QVQLVESGGGVVQPGRSLRLSCAASGFTFSSYGMHWVRQAPGKGLEWVTFISFDERNKYYADSVKGRFTISRDNSKNTLYLQMNSLRAEDTAMYYCASEVGYSFGHDAFDIWGQGTMVTVSS
VL: not shown
B11: H1H29138P (antibody, V domains shown)
VH: QVQLVESGGGVVQPGRSLRLSCAASGFTFSTYGMHWVRQAPGKGLEWVAVIWYDGTNKYYADSVKGRFTISRDNSKNTLYLQMISLRAEDTAVYYCARDPSGGDHYYYYGMDVWGQGTTVTVSS
VL: DIQMTQSPSSLSASVGDRITITCQASQDISNYLNWYQQKPGKAPNLLISDASDLETGVPSRFSGSGSGTDFTFTISSLQPEDFATYYCQQYDNIPITFGQGTRLEIKR
B12: H1H29166P2 (antibody, V domains shown)
VH: EVQLVESGGGLLQPGRSLRLSCVASGFTFDDYAMHWVRQAPGKGLEWVSGISWNSESIGYADSVRGRFTISRDNAKNSLYLQMNSLRAEDTALYYCAKAPYSGTYFEYFRHWGQGTLVTVSS
VL: not shown
B13: H1H29149P2 (antibody, V domains shown)
VH: QVQLQESGPGLVKPSQTLSLTCTVSGGSISSGGYYWNWIRQHPGKGLEWIGYIYYSGSTYYNPSLKSRVTISVDTSKNQFSLKLGSVTAADTAVYYCARAPPYNWFDYWGQGTLVTVSS
VL: not shown

Biological target: PfRH5 of Plasmodium falciparum strain 7G8 (on live parasites) (Plasmodium falciparum)
Test: cell-based or functional assay

Binder	Max growth inhibition (%) 7G8 [%]
B1	19.1
B2	12.4
B3	34.1
B4	47
B5	17
B6	29.9
B7	47.5
B8	17.8
B9	62.6
B10	54.6
B11	57.4
B12	54.6

Biological target: PfRH5 of Plasmodium falciparum strain D10 (on live parasites) (Plasmodium falciparum)
Test: cell-based or functional assay

Binder	Max growth inhibition (%) D10 [%]
B1	10.8
B2	8.7
B3	62.5
B4	75.4
B5	10.6
B6	35.9
B7	38.7
B8	6.79
B10	50
B11	57.1
B12	70.9
B13	66

Biological target: PfRH5 of Plasmodium falciparum strain RF7 (on live parasites) (Plasmodium falciparum)
Test: cell-based or functional assay

Binder	Max growth inhibition (%) RF7 [%]
B1	5.97
B2	-7.69
B3	-2.99
B4	21
B5	-12.5
B6	15.2
B7	18.3
B8	-6.27
B9	10.7
B10	32.1
B11	51.4
B12	19.4
B13	14.7

Biological target: PfRH5 of Plasmodium falciparum strain FCR-1/FVO (on live parasites) (Plasmodium falciparum)
Test: cell-based or functional assay

Binder	Max growth inhibition (%) FCR-1/FVO [%]
B1	7.32
B2	15.1
B3	49
B4	67.6
B5	11.7
B6	51.2
B7	53.7
B8	16.1
B9	64.5
B10	74.2
B11	84.1
B12	69.7
B13	58

Biological target: PfRH5 of Plasmodium falciparum strain W2-mef (on live parasites) (Plasmodium falciparum)
Test: cell-based or functional assay

Binder	Max growth inhibition (%) W2-mef [%]
B1	0.57
B2	4.35
B3	22.9
B4	64.6
B5	0.74
B6	34.9
B7	53.9
B8	-0.55
B9	63.7
B10	56.2
B11	66.4
B12	61.9
B13	42.8

Biological target: PfRH5 of Plasmodium falciparum strain Dd2 (on live parasites) (Plasmodium falciparum)
Test: cell-based or functional assay

Binder	Max growth inhibition (%) Dd2 [%]
B2	-15.2
B3	13.5
B4	51.4
B5	7.71
B6	41.6
B7	58
B8	0.68
B9	61.2
B10	65.3
B11	74.4
B12	60

Biological target: PfRH5 of Plasmodium falciparum strain HB3 (on live parasites) (Plasmodium falciparum)
Test: cell-based or functional assay

Binder	Max growth inhibition (%) HB3 [%]
B1	33.9
B2	5.62
B3	40.9
B5	0.52
B6	45.4
B7	31.7
B8	4.92
B9	56.5
B10	50
B11	51.4
B12	54.9
B13	40

Biological target: PfRH5 of Plasmodium falciparum strain Cam3.II (on live parasites) (Plasmodium falciparum)
Test: cell-based or functional assay

Binder	Max growth inhibition (%) Cam3.II [%]
B1	8.18
B2	-3.38
B3	33.4
B4	42.7
B5	5.45
B6	26.2
B7	26.3
B8	8.66
B9	46.7
B10	49.3
B11	48.7
B12	55.9
B13	36.2
